T1: recombinant human TL1A (human, UniProt O95150 71-251)
T1 construct: homotrimer; biotinylated for SPR capture; the ELISA paragraphs say only 'recombinant TL1A'; also called TNFSF15
T1 chain: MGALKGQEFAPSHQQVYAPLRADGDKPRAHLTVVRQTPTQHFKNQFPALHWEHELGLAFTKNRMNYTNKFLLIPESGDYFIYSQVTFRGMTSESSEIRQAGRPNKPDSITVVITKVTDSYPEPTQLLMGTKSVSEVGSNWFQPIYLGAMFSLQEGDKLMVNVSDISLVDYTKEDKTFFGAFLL

T2: recombinant human TL1A (human, UniProt O95150 71-251)
T2 construct: The ELISA method says only 'recombinant TL1A' coated on plates; homotrimeric cytokine; also called TNFSF15; recombinant TL1A
T2 chain: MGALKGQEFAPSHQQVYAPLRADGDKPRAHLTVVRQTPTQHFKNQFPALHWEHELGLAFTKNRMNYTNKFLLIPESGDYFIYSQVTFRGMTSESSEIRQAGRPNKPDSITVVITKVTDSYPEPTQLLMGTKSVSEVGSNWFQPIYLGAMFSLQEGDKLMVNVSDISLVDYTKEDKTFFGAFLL

B1: TL1A-0012 (antibody, IgG1, V domains shown)
VH: QVQLVQSGAEVKKPGASVKVSCKASGYDFTYYGISWVRQAPGQGLEWMGWISTYNGNTHYADSLQGRVTMTTDTSTRTAYMELRSLRSDDTAVYYCARENYYGSGAYRGGMDVWGQGTTVTVSS
VL: EIVLTQSPATLSLSPGERATLSCRASQSVSSYLAWYQQKPGQAPRLLIYDASNRATGIPARFSGSGSGTDFTLTISSLEPEDFAVYYCQQRSNWPWTFGQGTKVEIKR
notes: IgG1/kappa variant of TL1A-0002
B2: TL1A-0291 (antibody, human IgG1, kappa, V domains shown)
VH: QVQLVQSGAEVKKPGASVKVSCKASGYDFTYYGVSWVRQAPGQGLEWMGWISTYNTGTHYAQKLQGRVTMTTDTSTSTAYMELRSLRSDDTAVYYCARESYYGSGAHRGGMDVWGQGTTVTVSS
VL: DIQMTQSPSSLSASVGDRVTITCRASQSVSSYLAWYQQKPGKAPKLLIYDASNRATGVPSRFSGSGSGTDFTLTISSLQPEDFATYYCQQRSNWPWTFGQGTKVEIKR
notes: human IgG1 effector-function-minimized / human kappa
B3: TL1A-0306 (antibody, human IgG1, kappa, V domains shown)
VH: QVQLVQSGAEVKKPGASVKVSCKASGYDFTYYGIGWVRQAPGQGLEWMGWISTYNTVTHYAPSLQGRVTMTTDTSTSTAYMELRSLRSDDTAVYYCARESYYGSGAFRGGMDVWGQGTTVTVSS
VL: DIQMTQSPSSLSASVGDRVTITCRASQSVSSYLAWYQQKPGKAPKLLIYDASNRATGVPSRFSGSGSGTDFTLTISSLQPEDFATYYCQQRSNWPWTFGQGTKVEIKR
notes: as for B2
B4: TL1A-0308 (antibody, human IgG1, kappa, V domains shown)
VH: QVQLVQSGAEVKKPGASVKVSCKASGYDFTYYGIGWVRQAPGQGLEWMGWISTYNTNTHYAPSLQGRVTMTTDTSTSTAYMELRSLRSDDTAVYYCARESYYGSGAFRGGMDVWGQGTTVTVSS
VL: DIQMTQSPSSLSASVGDRVTITCRASQSVSSYLAWYQQKPGKAPKLLIYDASNRATGVPSRFSGSGSGTDFTLTISSLQPEDFATYYCQQRSNWPWTFGQGTKVEIKR
notes: as for B2
B5: TL1A-0310 (antibody, V domains shown)
VH: QVQLVQSGAEVKKPGASVKVSCKASGYDFTYYGIGWVRQAPGQGLEWMGWISTYGGNTHYAPSLQGRVTMTTDTSTSTAYMELRSLRSDDTAVYYCARESYYGSGAFRGGMDVWGQGTTVTVSS
VL: DIQMTQSPSSLSASVGDRVTITCRASQSVSSYLAWYQQKPGKAPKLLIYDASNRATGVPSRFSGSGSGTDFTLTISSLQPEDFATYYCQQRSNWPWTFGQGTKVEIKR
notes: IgG1 effector-minimized/kappa
B6: TL1A-0300 (antibody, V domains shown)
VH: QVQLVQSGAEVKKPGASVKVSCKASGYDFTYYGIGWVRQAPGQGLEWMGWISTYNDNTHYAQKLQGRVTMTTDTSTSTAYMELRSLRSDDTAVYYCARESYYGSGAFRGGMDVWGQGTTVTVSS
VL: DIQMTQSPSSLSASVGDRVTITCRASQSVSSYLAWYQQKPGKAPKLLIYDASNRATGVPSRFSGSGSGTDFTLTISSLQPEDFATYYCQQRSNWPWTFGQGTKVEIKR
notes: IgG1 effector-minimized/kappa
B7: TL1A-0324 (antibody, human IgG1, kappa, V domains shown)
VH: QVQLVQSGAEVKKPGASVKVSCKASGYDFTYYGISWVRQAPGQGLEWMGWISTYNTNTHYARMLQGRVTMTTDTSTSTAYMELRSLRSDDTAVYYCARESYYGSGAYRGGMDVWGQGTTVTVSS
VL: DIQMTQSPSSLSASVGDRVTITCRASQSVSSYLAWYQQKPGKAPKLLIYDASNRATGVPSRFSGSGSGTDFTLTISSLQPEDFATYYCQQRSNWPWTFGQGTKVEIKR
notes: as for B2
B8: TL1A-0305 (antibody, human IgG1, kappa, V domains shown)
VH: QVQLVQSGAEVKKPGASVKVSCKASGYDFTYYGIGWVRQAPGQGLEWMGWISTYNTGTHYAQKLQGRVTMTTDTSTSTAYMELRSLRSDDTAVYYCARESYYGSGAHRGGMDVWGQGTTVTVSS
VL: DIQMTQSPSSLSASVGDRVTITCRASQSVSSYLAWYQQKPGKAPKLLIYDASNRATGVPSRFSGSGSGTDFTLTISSLQPEDFATYYCQQRSNWPWTFGQGTKVEIKR
notes: as for B2
B9: TL1A-0303 (antibody, human IgG1, kappa, V domains shown)
VH: QVQLVQSGAEVKKPGASVKVSCKASGYDFTYYGIGWVRQAPGQGLEWMGWISTYNTGTHYAPSLQGRVTMTTDTSTSTAYMELRSLRSDDTAVYYCARESYYGSGAHRGGMDVWGQGTTVTVSS
VL: DIQMTQSPSSLSASVGDRVTITCRASQSVSSYLAWYQQKPGKAPKLLIYDASNRATGVPSRFSGSGSGTDFTLTISSLQPEDFATYYCQQRSNWPWTFGQGTKVEIKR
notes: as for B2
B10: TL1A-0307 (antibody, human IgG1, kappa, V domains shown)
VH: QVQLVQSGAEVKKPGASVKVSCKASGYDFTYYGIGWVRQAPGQGLEWMGWISTYNTVTHYAPSLQGRVTMTTDTSTSTAYMELRSLRSDDTAVYYCARESYYGSGAHRGGMDVWGQGTTVTVSS
VL: DIQMTQSPSSLSASVGDRVTITCRASQSVSSYLAWYQQKPGKAPKLLIYDASNRATGVPSRFSGSGSGTDFTLTISSLQPEDFATYYCQQRSNWPWTFGQGTKVEIKR
notes: as for B2
B11: TL1A-0304 (antibody, human IgG1, kappa, V domains shown)
VH: QVQLVQSGAEVKKPGASVKVSCKASGYDFTYYGIGWVRQAPGQGLEWMGWISTYNTGTHYAQKLQGRVTMTTDTSTSTAYMELRSLRSDDTAVYYCARESYYGSGAFRGGMDVWGQGTTVTVSS
VL: DIQMTQSPSSLSASVGDRVTITCRASQSVSSYLAWYQQKPGKAPKLLIYDASNRATGVPSRFSGSGSGTDFTLTISSLQPEDFATYYCQQRSNWPWTFGQGTKVEIKR
notes: as for B2
B12: TL1A-0298 (antibody, V domains shown)
VH: QVQLVQSGAEVKKPGASVKVSCKASGYDFTYYGIGWVRQAPGQGLEWMGWISTYNDNTHYAPSLQGRVTMTTDTSTSTAYMELRSLRSDDTAVYYCARESYYGSGAFRGGMDVWGQGTTVTVSS
VL: DIQMTQSPSSLSASVGDRVTITCRASQSVSSYLAWYQQKPGKAPKLLIYDASNRATGVPSRFSGSGSGTDFTLTISSLQPEDFATYYCQQRSNWPWTFGQGTKVEIKR
notes: IgG1 effector-minimized/kappa
B13: TL1A-0301 (antibody, V domains shown)
VH: QVQLVQSGAEVKKPGASVKVSCKASGYDFTYYGIGWVRQAPGQGLEWMGWISTYNDNTHYAQKLQGRVTMTTDTSTSTAYMELRSLRSDDTAVYYCARESYYGSGAHRGGMDVWGQGTTVTVSS
VL: DIQMTQSPSSLSASVGDRVTITCRASQSVSSYLAWYQQKPGKAPKLLIYDASNRATGVPSRFSGSGSGTDFTLTISSLQPEDFATYYCQQRSNWPWTFGQGTKVEIKR
notes: IgG1 effector-minimized/kappa
B14: TL1A-0302 (antibody, V domains shown)
VH: QVQLVQSGAEVKKPGASVKVSCKASGYDFTYYGIGWVRQAPGQGLEWMGWISTYNTGTHYAPSLQGRVTMTTDTSTSTAYMELRSLRSDDTAVYYCARESYYGSGAFRGGMDVWGQGTTVTVSS
VL: DIQMTQSPSSLSASVGDRVTITCRASQSVSSYLAWYQQKPGKAPKLLIYDASNRATGVPSRFSGSGSGTDFTLTISSLQPEDFATYYCQQRSNWPWTFGQGTKVEIKR
notes: IgG1 effector-minimized/kappa
B15: TL1A-0299 (antibody, V domains shown)
VH: QVQLVQSGAEVKKPGASVKVSCKASGYDFTYYGIGWVRQAPGQGLEWMGWISTYNDNTHYAPSLQGRVTMTTDTSTSTAYMELRSLRSDDTAVYYCARESYYGSGAHRGGMDVWGQGTTVTVSS
VL: DIQMTQSPSSLSASVGDRVTITCRASQSVSSYLAWYQQKPGKAPKLLIYDASNRATGVPSRFSGSGSGTDFTLTISSLQPEDFATYYCQQRSNWPWTFGQGTKVEIKR
notes: IgG1 effector-minimized/kappa
B16: TL1A-0311 (antibody, V domains shown)
VH: QVQLVQSGAEVKKPGASVKVSCKASGYDFTYYGIGWVRQAPGQGLEWMGWISTYGGNTHYAPSLQGRVTMTTDTSTSTAYMELRSLRSDDTAVYYCARESYYGSGAHRGGMDVWGQGTTVTVSS
VL: DIQMTQSPSSLSASVGDRVTITCRASQSVSSYLAWYQQKPGKAPKLLIYDASNRATGVPSRFSGSGSGTDFTLTISSLQPEDFATYYCQQRSNWPWTFGQGTKVEIKR
notes: IgG1 effector-minimized/kappa
B17: TL1A-0309 (antibody, human IgG1, kappa, V domains shown)
VH: QVQLVQSGAEVKKPGASVKVSCKASGYDFTYYGIGWVRQAPGQGLEWMGWISTYNTNTHYAPSLQGRVTMTTDTSTSTAYMELRSLRSDDTAVYYCARESYYGSGAHRGGMDVWGQGTTVTVSS
VL: DIQMTQSPSSLSASVGDRVTITCRASQSVSSYLAWYQQKPGKAPKLLIYDASNRATGVPSRFSGSGSGTDFTLTISSLQPEDFATYYCQQRSNWPWTFGQGTKVEIKR
notes: as for B2

The first assay deals with T1, recombinant human TL1A. Nature of the assay: competition ELISA vs bio-TL1A-0002. The method, then:
For this competition ELISA assay procedure, 96-well high binding plates (Corning, product number 3590) were coated with 1 μg/mL recombinant TL1A in 100 μL/well in Phospate Buffered Saline (PBS) overnight at 4° C. Plates were then blocked in PBS+0.02% casein solution and washed with PBS+0.05% Tween-20 following standard ELISA protocol. […] Plates were washed with PBS+0.05% Tween-20 following standard ELISA protocol, and Streptavidin-HRP (Southern Biotech, product number 7100-05) diluted to 1:10,000 in assay buffer was added to plates and incubated for 25-30 minutes at room temperature. Next, the plates were washed with PBS+0.05% Tween-20 following standard ELISA protocol, and then TMB substrate (BioFX Laboratories, catalog number TMBW-0100-01) was added to plates. Reactions were stopped after approximately 5 minutes by adding 0.18 M ortho-phosphoric acid to each well and absorbance was read at 450 nm.
(An ELISA detects its analyte on a solid surface through an enzyme-linked reagent.)
In the case of B1, the “Bioactivity relative to TL1A-0002” value was 1.1 fold and the IC50 – broadly, the concentration that gives 50% inhibition – came out at 5 nM.

The target in a further assay is T2, recombinant human TL1A. In words: competition ELISA on coated recombinant TL1A; competitor biotinylated TL1A-0002.
For the molecule B2, the “Bioactivity relative to TL1A-0002” value was found to be 1.8 fold and the IC50 worked out at 9 nM.

B3: the “Bioactivity relative to TL1A-0002” value is 3.1 fold and the IC50 is 15.8 nM.

As for B4, the “Bioactivity relative to TL1A-0002” value worked out at 2.8 fold and the IC50 was found to be 14.2 nM.

As to B5, the “Bioactivity relative to TL1A-0002” value is 14.8 fold and the IC50 came out at 74.7 nM.

Regarding B6, the “Bioactivity relative to TL1A-0002” value was determined as 4.7 fold and the IC50 came to 23.8 nM.

For the molecule B7, the “Bioactivity relative to TL1A-0002” value turned out to be 1.2 fold and the IC50 amounted to 6.1 nM.

As to B8, the “Bioactivity relative to TL1A-0002” value was determined as 2.9 fold and the IC50 was 14.5 nM.

Take B9: the “Bioactivity relative to TL1A-0002” value stood at 3 fold and the IC50 is 15 nM.

On to B10, for which the “Bioactivity relative to TL1A-0002” value was determined as 3.4 fold and the IC50 turned out to be 17.2 nM.

For B11, the “Bioactivity relative to TL1A-0002” value came to 3 fold and the half-maximal inhibitory concentration (IC50) turned out to be 14.9 nM.

Turning to B12, the “Bioactivity relative to TL1A-0002” value was determined as 5 fold and the IC50 was determined as 25.3 nM.

As for B13, the “Bioactivity relative to TL1A-0002” value stood at 4.9 fold and the IC50 was 24.7 nM.

As for B14, the “Bioactivity relative to TL1A-0002” value came out at 4 fold and the IC50 came to 20.4 nM.

As for B15, the “Bioactivity relative to TL1A-0002” value stood at 4.5 fold and the IC50 is 22.9 nM.

B16: the “Bioactivity relative to TL1A-0002” value is 6 fold and the IC50 was 30.2 nM.

Regarding B17, the “Bioactivity relative to TL1A-0002” value amounted to 3.3 fold and the IC50 stood at 16.8 nM.
